Measured values published in patent US20260035431A1 (CAVALRY BIOSCIENCES, published 2026).

T1: IGFBP2 (UniProt P18065 37-325, limits assumed)
T1 sequence (looked up): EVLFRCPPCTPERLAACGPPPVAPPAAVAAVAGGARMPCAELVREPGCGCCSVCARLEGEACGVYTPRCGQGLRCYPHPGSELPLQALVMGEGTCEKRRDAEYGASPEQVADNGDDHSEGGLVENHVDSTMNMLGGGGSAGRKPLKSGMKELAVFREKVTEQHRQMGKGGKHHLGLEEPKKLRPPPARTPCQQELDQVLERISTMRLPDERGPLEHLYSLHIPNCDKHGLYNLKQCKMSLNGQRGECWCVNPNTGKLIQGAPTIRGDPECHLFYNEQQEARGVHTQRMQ


What was measured:
Assay in all cases: cell-based or functional assay
[1] = target: T2, IGF1 receptor (IGF1R) on DU145 cells or immortalized human meibomian gland epithelial cells (human, UniProt P08069 31-1367)
T2 sequence (P08069 31-1367): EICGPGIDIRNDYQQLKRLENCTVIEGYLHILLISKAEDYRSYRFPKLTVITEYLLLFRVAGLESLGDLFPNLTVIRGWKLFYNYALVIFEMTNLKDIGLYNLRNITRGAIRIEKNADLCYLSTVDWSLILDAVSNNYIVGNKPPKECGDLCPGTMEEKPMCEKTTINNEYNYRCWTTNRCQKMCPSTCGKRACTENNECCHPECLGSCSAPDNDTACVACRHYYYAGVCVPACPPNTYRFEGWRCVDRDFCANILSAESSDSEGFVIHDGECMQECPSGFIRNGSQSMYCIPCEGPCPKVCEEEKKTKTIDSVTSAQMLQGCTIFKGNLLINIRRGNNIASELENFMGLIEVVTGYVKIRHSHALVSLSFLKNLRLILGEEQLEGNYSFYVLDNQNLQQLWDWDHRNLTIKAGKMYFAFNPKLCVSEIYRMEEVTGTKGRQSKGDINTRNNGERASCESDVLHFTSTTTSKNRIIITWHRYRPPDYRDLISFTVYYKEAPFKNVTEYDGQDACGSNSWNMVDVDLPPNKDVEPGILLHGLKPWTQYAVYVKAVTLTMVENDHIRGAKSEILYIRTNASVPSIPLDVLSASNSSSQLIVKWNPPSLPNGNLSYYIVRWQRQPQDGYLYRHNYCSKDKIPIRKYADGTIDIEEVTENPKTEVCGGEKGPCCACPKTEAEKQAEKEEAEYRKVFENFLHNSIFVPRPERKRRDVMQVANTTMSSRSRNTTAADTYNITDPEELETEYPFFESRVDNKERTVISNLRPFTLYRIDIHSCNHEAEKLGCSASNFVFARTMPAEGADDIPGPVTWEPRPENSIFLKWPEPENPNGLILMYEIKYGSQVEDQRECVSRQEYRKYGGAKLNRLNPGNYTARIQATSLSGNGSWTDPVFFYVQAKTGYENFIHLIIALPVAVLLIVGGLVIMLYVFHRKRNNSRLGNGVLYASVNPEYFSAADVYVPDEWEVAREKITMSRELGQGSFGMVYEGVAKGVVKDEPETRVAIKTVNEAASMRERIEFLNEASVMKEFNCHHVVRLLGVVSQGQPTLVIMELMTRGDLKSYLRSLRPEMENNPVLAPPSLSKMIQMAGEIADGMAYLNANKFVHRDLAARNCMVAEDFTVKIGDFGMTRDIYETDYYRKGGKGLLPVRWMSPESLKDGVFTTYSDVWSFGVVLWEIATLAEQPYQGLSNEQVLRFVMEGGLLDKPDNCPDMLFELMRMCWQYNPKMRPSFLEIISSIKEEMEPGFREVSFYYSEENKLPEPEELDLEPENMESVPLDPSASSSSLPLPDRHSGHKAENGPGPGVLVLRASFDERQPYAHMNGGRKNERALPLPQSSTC

IGFBP2 = target: T1, IGFBP2
IGFBP3 = IGFBP3 (UniProt P17936 28-291)
Sequence of IGFBP3 (P17936 28-291 limits assumed): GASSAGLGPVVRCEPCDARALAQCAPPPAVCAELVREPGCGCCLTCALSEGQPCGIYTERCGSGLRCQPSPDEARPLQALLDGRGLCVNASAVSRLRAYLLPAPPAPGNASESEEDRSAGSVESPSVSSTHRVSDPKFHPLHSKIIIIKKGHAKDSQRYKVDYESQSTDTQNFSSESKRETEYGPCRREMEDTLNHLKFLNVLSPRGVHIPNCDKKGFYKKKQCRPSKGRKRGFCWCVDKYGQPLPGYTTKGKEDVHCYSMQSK

[2] = target: T2, IGF1 receptor (IGF1R) on DU145 cells or …; remark: listed apart in the source

Row | Binder | EC50 (nM), P-AKT in DU145 cells [1] [nM] | % Activity compared to no IGFBP, 4x BP2 (IGFBP2) [%] | % Activity compared to no IGFBP, 4x BP3 (IGFBP3) [%] | EC50, AKT S473 phosphorylation in DU145 cells [2] [nM]
1 | E3R-F49L-D12A (ligand) GPRTLCGAELVAALQFVCGDRGFYFNKPTGYGSSSRRAPQTGIVDECCLRSCDLRRLEMYCAPLKPAKSA | 17.7 | 357 | 342 | 
2 | E3R-F49L-L54A (ligand) GPRTLCGAELVDALQFVCGDRGFYFNKPTGYGSSSRRAPQTGIVDECCLRSCDARRLEMYCAPLKPAKSA | 11.4 | 175 | 239 | 
3 | E3R-F49L-D12A-L54A (ligand) GPRTLCGAELVAALQFVCGDRGFYFNKPTGYGSSSRRAPQTGIVDECCLRSCDARRLEMYCAPLKPAKSA | 68.1 | 456 | 344 | 
4 | IGF-1 Des1-3 R37X (ligand) TLCGAELVDALQFVCGDRGFYFNKPTGYGSSSRAPQTGIVDECCFRSCDLRRLEMYCAPLKPAKSA |  |  |  | 4.1
5 | IGF-1 Des1-3 (SEQ ID NO: 8) as tested in Example 1 (ligand) MRAAAPAVAATLCGAELVDALQFVCGDRGFYFNKPTGYGSSSRRAPQTGIVDECCFRSCDLRRLEMYCAPLKPAKSA |  |  |  | 2.3
